Measurements: patent US20080274950A1 (BABRAHAM INSTITUTE, published 2008)
Blank lines part the entries; values can stand above or below the binder they belong to.

How the values were obtained:
[1] = biological target: T1, full length chicken N-cadherin with the N-terminus extended by two glycine residues (GG) expressed on K562 … (chicken, UniProt P10288 165-912); test: adhesion of K562 transfectants to coated N-cadherin Fc
T1 construct: whole, on cells; also called cells expressing the GG N-terminal extension mutant; K562 GG
T1 sequence: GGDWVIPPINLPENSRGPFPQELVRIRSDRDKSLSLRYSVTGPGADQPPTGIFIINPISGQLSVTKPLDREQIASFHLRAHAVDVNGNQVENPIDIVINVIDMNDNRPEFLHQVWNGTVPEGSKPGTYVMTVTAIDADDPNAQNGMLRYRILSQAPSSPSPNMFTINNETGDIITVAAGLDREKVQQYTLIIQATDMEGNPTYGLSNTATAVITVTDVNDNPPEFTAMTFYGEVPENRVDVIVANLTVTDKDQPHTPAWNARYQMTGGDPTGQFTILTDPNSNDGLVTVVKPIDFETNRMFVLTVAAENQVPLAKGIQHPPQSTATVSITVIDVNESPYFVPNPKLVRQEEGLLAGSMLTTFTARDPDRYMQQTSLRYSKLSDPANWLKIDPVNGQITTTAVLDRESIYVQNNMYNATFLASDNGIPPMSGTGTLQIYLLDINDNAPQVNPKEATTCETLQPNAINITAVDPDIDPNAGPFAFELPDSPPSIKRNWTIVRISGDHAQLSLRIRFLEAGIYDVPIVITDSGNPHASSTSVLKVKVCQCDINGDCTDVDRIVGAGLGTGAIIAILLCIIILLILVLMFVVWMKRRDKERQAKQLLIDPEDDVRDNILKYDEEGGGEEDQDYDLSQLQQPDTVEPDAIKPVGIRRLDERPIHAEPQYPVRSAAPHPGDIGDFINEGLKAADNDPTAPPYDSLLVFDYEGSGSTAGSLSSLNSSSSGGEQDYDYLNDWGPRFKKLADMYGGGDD
Protocol: (§1) Adhesion tests were conducted substantially as described in Example 1. Briefly, K562 Cells or L cells transfected with wild type or mutant N-cadherin were allowed to settle for 45 minutes at 37° C. onto N-cadherin Fc fusion proteins coated at 1 μg/ml to a 96 well plate. Non-adherent cells were then washed off and residual adherent cells were quantitated by measuring acid phosphatase activity. Assays were conducted in quadruplicate and results are expressed as % cells adhering +/−SEM.

[2] = biological target: T2, full length chicken N-cadherin with the mutation E89A expressed on K562 cells (chicken, UniProt P10288 165-912, E89A); test: adhesion of K562 transfectants to N-cadherin Fc coated at 1 µg/ml; reversed by chelation of calcium
T2 construct: whole, on cells; also called cells expressing the E89A mutation; K562 E89A
T2 sequence (looked up): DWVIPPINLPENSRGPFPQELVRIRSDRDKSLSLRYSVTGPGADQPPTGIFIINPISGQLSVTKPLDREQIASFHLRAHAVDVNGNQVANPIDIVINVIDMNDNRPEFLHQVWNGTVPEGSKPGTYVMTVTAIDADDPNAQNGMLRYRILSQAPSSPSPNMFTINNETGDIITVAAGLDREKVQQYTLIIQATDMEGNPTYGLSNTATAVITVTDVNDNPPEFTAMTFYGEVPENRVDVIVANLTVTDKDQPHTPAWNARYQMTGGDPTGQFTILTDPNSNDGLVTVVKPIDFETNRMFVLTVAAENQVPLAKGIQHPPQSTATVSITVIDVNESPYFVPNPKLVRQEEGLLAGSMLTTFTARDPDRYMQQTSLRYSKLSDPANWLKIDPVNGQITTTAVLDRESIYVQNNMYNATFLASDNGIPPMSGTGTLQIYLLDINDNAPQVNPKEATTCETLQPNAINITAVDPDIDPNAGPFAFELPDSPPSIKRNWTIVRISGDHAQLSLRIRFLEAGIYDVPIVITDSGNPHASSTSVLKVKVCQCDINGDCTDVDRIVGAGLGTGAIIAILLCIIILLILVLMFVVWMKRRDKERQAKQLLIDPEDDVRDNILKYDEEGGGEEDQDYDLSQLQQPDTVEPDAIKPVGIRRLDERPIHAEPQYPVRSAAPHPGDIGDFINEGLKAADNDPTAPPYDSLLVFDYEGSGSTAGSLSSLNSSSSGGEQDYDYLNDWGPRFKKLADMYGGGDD
Protocol: as §1

[3] = biological target: T3, human N-cadherin naturally expressed on DX3 melanoma cells (human, UniProt P19022 160-906); test: adhesion of DX3 cells to coated monomeric N-cadherin-Fc, oxidising buffer
T3 construct: also called DX3 Cells; N-cadherin+ve DX3 melanoma cells
T3 sequence: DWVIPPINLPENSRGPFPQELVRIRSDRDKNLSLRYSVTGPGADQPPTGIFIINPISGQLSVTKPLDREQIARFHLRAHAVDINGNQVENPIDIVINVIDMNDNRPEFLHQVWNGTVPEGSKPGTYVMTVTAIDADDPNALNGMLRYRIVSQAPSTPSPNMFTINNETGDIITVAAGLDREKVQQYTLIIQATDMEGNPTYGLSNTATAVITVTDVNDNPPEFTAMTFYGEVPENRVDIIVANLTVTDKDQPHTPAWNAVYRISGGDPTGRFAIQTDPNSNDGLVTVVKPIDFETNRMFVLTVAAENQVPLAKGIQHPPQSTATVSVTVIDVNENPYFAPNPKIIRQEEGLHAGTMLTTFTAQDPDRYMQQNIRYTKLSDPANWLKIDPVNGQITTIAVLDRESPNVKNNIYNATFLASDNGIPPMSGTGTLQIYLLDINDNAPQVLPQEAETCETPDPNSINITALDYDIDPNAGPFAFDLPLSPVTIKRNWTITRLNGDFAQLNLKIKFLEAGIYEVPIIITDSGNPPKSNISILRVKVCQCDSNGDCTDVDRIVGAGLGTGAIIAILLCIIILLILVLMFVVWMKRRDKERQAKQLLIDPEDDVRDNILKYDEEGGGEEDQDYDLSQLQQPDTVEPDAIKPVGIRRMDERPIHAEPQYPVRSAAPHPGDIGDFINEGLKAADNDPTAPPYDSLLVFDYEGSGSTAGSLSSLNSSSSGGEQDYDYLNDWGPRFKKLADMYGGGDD
Protocol: Monomeric or dimeric N-cadherin-Fc fusion protein in Cos cell supernatants was added as described for the ELISA assay. DX3 Cells, a human melanoma cell line which expresses N-cadherin, were dissociated with Cell Dissociation Solution (Sigma, code C5789), resuspended in HBSS with 2% FCS and assessed for adhesion to wild type or mutant N-cadherin-Fc as previously described (Corps et al., 2001). Microscopic examination established that the cells were present as a single cell suspension as they settled onto the plate. For assays conducted in reducing conditions, 10 mM DTT was present during the adhesion and washing steps. Determinations were conducted in triplicate and results are presented as mean +/−sem.

[4] = biological target: the molecule itself; test: disulphide-bonded cis-dimers in the coating layer; non-reducing SDS-PAGE and immunoblot
Protocol: Monomeric N-cadherin-Fc (1 μg/ml) bearing the three alternative cysteine point mutations, D1C, R25C or D27C, was immobilised on 96-well plates with goat antihuman IgG Fe as previously described for E-cadherin-Fc (Corps et al., 2001). Unbound cadherin was removed by washing with HBSS, 0.1% BSA, followed by HBSS alone. The plates were not blocked with additional protein. K562 transfectants expressing N-cadherin bearing complementary or non-complementary point mutations (6×10^4 Cells in 100 μl HBSS containing 10 mM DTT), in single cell suspension, were added to the coated wells which contained 100 μl HBSS. The final concentration of DTT was therefore 5 mM DTT during the adhesion stage. The cells were allowed to settle for 10 min at room temperature before incubation at 37° C. for 30 minutes to complete adhesion. […] Adherent cells from a pool of 4 wells for each experimental condition were then solubilised in sample buffer for SDS-PAGE and analysed on NuPAGE Novex gradient gels, 3-8% or 4-12%, (Invitrogen), under nonreducing or reducing conditions. Cellular cadherin was detected by immunoblotting using rabbit pan anti-cadherin antiserum specific for the cytoplasmic domain. Alternatively, N-cadherin-Fc fusion protein was detected with rabbit anti-human IgG, Fc-specific (Pierce, code 31142). […]

[5] = biological target: T2, full length chicken N-cadherin with the …; test: adhesion of K562 transfectants to coated N-cadherin Fc
Protocol: as §1

[6] = biological target: T1, full length chicken N-cadherin with the …; test: adhesion of K562 transfectants to N-cadherin Fc coated at 1 µg/ml
Protocol: as §1

binding result [2]: binds
B1: chicken N-cadherin Fc fusion protein with the N-terminus extended by two glycine residues (GG) (Fc fusion)
chain: GGDWVIPPINLPENSRGPFPQELVRIRSDRDKSLSLRYSVTGPGADQPPTGIFIINPISGQLSVTKPLDREQIASFHLRAHAVDVNGNQVENPIDIVINVIDMNDNRPEFLHQVWNGTVPEGSKPGTYVMTVTAIDADDPNAQNGMLRYRILSQAPSSPSPNMFTINNETGDIITVAAGLDREKVQQYTLIIQATDMEGNPTYGLSNTATAVITVTDVNDNPPEFTAMTFYGEVPENRVDVIVANLTVTDKDQPHTPAWNARYQMTGGDPTGQFTILTDPNSNDGLVTVVKPIDFETNRMFVLTVAAENQVPLAKGIQHPPQSTATVSITVIDVNESPYFVPNPKLVRQEEGLLAGSMLTTFTARDPDRYMQQTSLRYSKLSDPANWLKIDPVNGQITTTAVLDRESIYVQNNMYNATFLASDNGIPPMSGTGTLQIYLLDINDNAPQVNPKEATTCETLQPNAINITAVDPDIDPNAGPFAFELPDSPPSIKRNWTIVRISGDHAQLSLRIRFLEAGIYDVPIVITDSGNPHASSTSVLKVKVCQCDINGDCTDVDRIVGAGLGTG
notes: extracellular domain; also called GG extension mutant; GG mutant; not shown: hinge region, CH2 and CH3 domains of human IgG1 heavy chain (vector pIgSig)
binding result [1]: no binding (tested: Fc fusion protein coated at 1 µg/ml)

binding result [3]: binds
B2: monomeric chicken N-cadherin-Fc with the mutation D1C (Fc fusion, UniProt P10288 165-728, looked up)
chain: CWVIPPINLPENSRGPFPQELVRIRSDRDKSLSLRYSVTGPGADQPPTGIFIINPISGQLSVTKPLDREQIASFHLRAHAVDVNGNQVENPIDIVINVIDMNDNRPEFLHQVWNGTVPEGSKPGTYVMTVTAIDADDPNAQNGMLRYRILSQAPSSPSPNMFTINNETGDIITVAAGLDREKVQQYTLIIQATDMEGNPTYGLSNTATAVITVTDVNDNPPEFTAMTFYGEVPENRVDVIVANLTVTDKDQPHTPAWNARYQMTGGDPTGQFTILTDPNSNDGLVTVVKPIDFETNRMFVLTVAAENQVPLAKGIQHPPQSTATVSITVIDVNESPYFVPNPKLVRQEEGLLAGSMLTTFTARDPDRYMQQTSLRYSKLSDPANWLKIDPVNGQITTTAVLDRESIYVQNNMYNATFLASDNGIPPMSGTGTLQIYLLDINDNAPQVNPKEATTCETLQPNAINITAVDPDIDPNAGPFAFELPDSPPSIKRNWTIVRISGDHAQLSLRIRFLEAGIYDVPIVITDSGNPHASSTSVLKVKVCQCDINGDCTDVDRIVGAGLGT
notes: extracellular domain; not shown: hinge region, CH2 and CH3 domains of human IgG1 heavy chain (vector pIgSig)
binding result [4]: binds

binding result [6]: binds
B3: chicken N-cadherin Fc fusion protein with the mutation E89A (Fc fusion, UniProt P10288 165-728, looked up)
chain: DWVIPPINLPENSRGPFPQELVRIRSDRDKSLSLRYSVTGPGADQPPTGIFIINPISGQLSVTKPLDREQIASFHLRAHAVDVNGNQVANPIDIVINVIDMNDNRPEFLHQVWNGTVPEGSKPGTYVMTVTAIDADDPNAQNGMLRYRILSQAPSSPSPNMFTINNETGDIITVAAGLDREKVQQYTLIIQATDMEGNPTYGLSNTATAVITVTDVNDNPPEFTAMTFYGEVPENRVDVIVANLTVTDKDQPHTPAWNARYQMTGGDPTGQFTILTDPNSNDGLVTVVKPIDFETNRMFVLTVAAENQVPLAKGIQHPPQSTATVSITVIDVNESPYFVPNPKLVRQEEGLLAGSMLTTFTARDPDRYMQQTSLRYSKLSDPANWLKIDPVNGQITTTAVLDRESIYVQNNMYNATFLASDNGIPPMSGTGTLQIYLLDINDNAPQVNPKEATTCETLQPNAINITAVDPDIDPNAGPFAFELPDSPPSIKRNWTIVRISGDHAQLSLRIRFLEAGIYDVPIVITDSGNPHASSTSVLKVKVCQCDINGDCTDVDRIVGAGLGT
notes: extracellular domain; also called E89A mutant; E89A Fc fusion protein; not shown: hinge region, CH2 and CH3 domains of human IgG1 heavy chain (vector pIgSig)
binding result [5]: no binding (tested: Fc fusion protein coated at 1 µg/ml)
